Laboratory results from paper PMC3035117 (ChemMedChem, 2010).
Where two headings read alike, the source gives them in different places. Square brackets hold non-standard residues; d marks the D form. Ends that are not written are not given here. Ftp = ferrocenyl-triazole-Pro (made from azidoproline); Cit = NC(=O)NCCC[C@H](N)C(=O)O

Experiments:
HIV-1 YU-2 gp120 [1] = molecular target: T1, HIV-1 YU-2 gp120 (HIV-1 (YU-2), UniProt P35961 32-498); test: ELISA
HIV-1 YU-2 gp120 [2] = molecular target: T1, HIV-1 YU-2 gp120; test: ITC
HIV-1 YU-2 gp120 [3] = molecular target: T1, HIV-1 YU-2 gp120; test: ELISA; remark: listed apart in the source

Row | Binder | IC50 (HIV-1 YU-2 gp120 [1]) [nM] | dH (HIV-1 YU-2 gp120 [2]) [kcal/mol] | IC50 (HIV-1 YU-2 gp120 [3]) [nM]
1 | NNI[Ftp]W-NH2 [UM17] | 4000 ± 170 | -13.2 | 600 ± 50
2 | [Cit]NNI[Ftp]WS [UM24] | – | -16.7 | –
3 | INNI[Ftp]W-NH2 [UM15] | – | -16.6 | –
4 | NI[Ftp]WS-NH2 [UM41] | – | -6.1 | –
